US20220146515A1 (XIAMEN INNODX BIOTECH, published 2022)

What was measured:
[1] = biological target: T1, AMH3647-19 (Dog sequence) (Dog); experiment: competition ELISA, AMH-coated plate
T1 peptide: GLLFQPDWDWPP
Protocol: (§1) 1. AMH antigen was diluted with carbonic acid buffer (20 mmol/L CB, pH 9.6) and then coated on a polyvinyl chloride plate. In the pretreatment, the antibody purified by the protein A column and the synthesized short peptides with different human AMH36-47 amino acid mutations (see Table 6 for each synthesized sequence) were subjected to proportion incubation (100 ng/ml antibody: 50 ug/ml truncated antigen) for 30 minutes, that were test samples; the control sample was (100 ng/ml antibody: PBS) and incubated for 30 minutes, and then the test samples after incubation and the control sample were added to AMH antigen plate and incubated for 30 minutes, the plate was washed for 5 times, added with GAM-HRP (1/5000 dilution) and incubated for 30 minutes, the plate was washed for 5 times, and the substrate was added and incubated for 15 minutes. The values under wavelength of 450/620 were read by microplate reader, and the detected OD values were finally calculated and analyzed. The calculation formula was: (control sample OD value−test sample OD value)/control sample OD value, and the criterion for determination was as follows: 90% or more, which represented that there was cross-reaction.

[2] = biological target: T2, AMH3647-22 (Mouse sequence) (Mouse); experiment: competition ELISA, AMH-coated plate
T2 peptide: GLIFLEDELWPP
Protocol: as §1

[3] = biological target: T3, AMH3647-23 (Cattle sequence) (Cattle); experiment: competition ELISA, AMH-coated plate
T3 peptide: ALIFQQAWDWPL
Protocol: as §1

[4] = biological target: T4, AMH3647-25 (Horse sequence) (Horse); experiment: competition ELISA, AMH-coated plate
T4 peptide: GLIFHQDWDWPP
Protocol: as §1

[5] = biological target: T5, human AMH36-47 short peptide, mutation site 36 (human); experiment: competition ELISA, antibody preincubated with target, AMH-coated plate
T5 peptide: ALIFREDLDWPP
Protocol: as §1, with “mutations” for “mutations (see Table 6 for each synthesized sequence)”, “follows: a value lower than” for “follows:”, “indicated the corresponding amino acid” for “or more, which represented that there”, “a key amino acid, and the mutation has a great impact on the reaction of antibody.” for “cross-reaction.”

[6] = biological target: T6, human AMH36-47 short peptide, mutation site 37 (human); experiment: as above
T6 peptide: GAIFREDLDWPP
Protocol: as §1, with “mutations” for “mutations (see Table 6 for each synthesized sequence)”, “follows: a value lower than” for “follows:”, “indicated the corresponding amino acid” for “or more, which represented that there”, “a key amino acid, and the mutation has a great impact on the reaction of antibody.” for “cross-reaction.”

[7] = biological target: T7, human AMH36-47 short peptide, mutation site 38 (human); experiment: as above
T7 peptide: GLAFREDLDWPP
Protocol: as §1, with “mutations” for “mutations (see Table 6 for each synthesized sequence)”, “follows: a value lower than” for “follows:”, “indicated the corresponding amino acid” for “or more, which represented that there”, “a key amino acid, and the mutation has a great impact on the reaction of antibody.” for “cross-reaction.”

[8] = biological target: T8, human AMH36-47 short peptide, mutation site 39 (human); experiment: as above
T8 peptide: GLIAREDLDWPP
Protocol: as §1, with “mutations” for “mutations (see Table 6 for each synthesized sequence)”, “follows: a value lower than” for “follows:”, “indicated the corresponding amino acid” for “or more, which represented that there”, “a key amino acid, and the mutation has a great impact on the reaction of antibody.” for “cross-reaction.”

[9] = biological target: T9, human AMH36-47 short peptide, mutation site 40 (human); experiment: as above
T9 peptide: GLIFAEDLDWPP
Protocol: as §1, with “mutations” for “mutations (see Table 6 for each synthesized sequence)”, “follows: a value lower than” for “follows:”, “indicated the corresponding amino acid” for “or more, which represented that there”, “a key amino acid, and the mutation has a great impact on the reaction of antibody.” for “cross-reaction.”

[10] = biological target: T10, human AMH36-47 short peptide, mutation site 41 (human); experiment: as above
T10 peptide: GLIFRADLDWPP
Protocol: as §1, with “mutations” for “mutations (see Table 6 for each synthesized sequence)”, “follows: a value lower than” for “follows:”, “indicated the corresponding amino acid” for “or more, which represented that there”, “a key amino acid, and the mutation has a great impact on the reaction of antibody.” for “cross-reaction.”

[11] = biological target: T11, human AMH36-47 short peptide, mutation site 42 (human); experiment: as above
T11 peptide: GLIFREALDWPP
Protocol: as §1, with “mutations” for “mutations (see Table 6 for each synthesized sequence)”, “follows: a value lower than” for “follows:”, “indicated the corresponding amino acid” for “or more, which represented that there”, “a key amino acid, and the mutation has a great impact on the reaction of antibody.” for “cross-reaction.”

[12] = biological target: T12, human AMH36-47 short peptide, mutation site 43 (human); experiment: as above
T12 peptide: GLIFREDADWPP
Protocol: as §1, with “mutations” for “mutations (see Table 6 for each synthesized sequence)”, “follows: a value lower than” for “follows:”, “indicated the corresponding amino acid” for “or more, which represented that there”, “a key amino acid, and the mutation has a great impact on the reaction of antibody.” for “cross-reaction.”

[13] = biological target: T13, human AMH36-47 short peptide, mutation site 44 (human); experiment: as above
T13 peptide: GLIFREDLAWPP
Protocol: as §1, with “mutations” for “mutations (see Table 6 for each synthesized sequence)”, “follows: a value lower than” for “follows:”, “indicated the corresponding amino acid” for “or more, which represented that there”, “a key amino acid, and the mutation has a great impact on the reaction of antibody.” for “cross-reaction.”

[14] = biological target: T14, human AMH36-47 short peptide, mutation site 45 (human); experiment: as above
T14 peptide: GLIFREDLDAPP
Protocol: as §1, with “mutations” for “mutations (see Table 6 for each synthesized sequence)”, “follows: a value lower than” for “follows:”, “indicated the corresponding amino acid” for “or more, which represented that there”, “a key amino acid, and the mutation has a great impact on the reaction of antibody.” for “cross-reaction.”

[15] = biological target: T15, human AMH36-47 short peptide, mutation site 46 (human); experiment: as above
T15 peptide: GLIFREDLDWAP
Protocol: as §1, with “mutations” for “mutations (see Table 6 for each synthesized sequence)”, “follows: a value lower than” for “follows:”, “indicated the corresponding amino acid” for “or more, which represented that there”, “a key amino acid, and the mutation has a great impact on the reaction of antibody.” for “cross-reaction.”

[16] = biological target: T16, human AMH36-47 short peptide, mutation site 47 (human); experiment: as above
T16 peptide: GLIFREDLDWPA
Protocol: as §1, with “mutations” for “mutations (see Table 6 for each synthesized sequence)”, “follows: a value lower than” for “follows:”, “indicated the corresponding amino acid” for “or more, which represented that there”, “a key amino acid, and the mutation has a great impact on the reaction of antibody.” for “cross-reaction.”

[17] = biological target: T17, AMH3647-1 (Deer sequence) (Deer); experiment: as above
T17 peptide: ALIFQQDWDWPL

[18] = biological target: T18, AMH3647-2 (Beaver sequence) (Beaver); experiment: as above
T18 peptide: DLIFHEDWAWPP

[19] = biological target: T19, AMH3647-8 (Myotis sequence) (Myotis); experiment: as above
T19 peptide: GLIFHQDWDWPA

[20] = biological target: T20, AMH3647-10 (Pig sequence) (Pig); experiment: as above
T20 peptide: GLIFHWDWNWPP

[21] = biological target: T21, AMH3647-11 (Neotoma sequence) (Neotoma); experiment: as above
T21 peptide: GLIFLEDGIWPP

[22] = biological target: T22, AMH3647-12 (Gerbil sequence) (Gerbil); experiment: as above
T22 peptide: GLIFLEDGLWPP

[23] = biological target: T23, AMH3647-13 (Rat sequence) (Rat); experiment: as above
T23 peptide: GLIFLEDGVWPP

[24] = biological target: T2, AMH3647-22 (Mouse sequence); experiment: as above
[25] = biological target: T3, AMH3647-23 (Cattle sequence); experiment: as above

B1: monoclonal antibody C9F2-2 (antibody, V domains shown)
VH: EVQLVESGGGLVKPGGSLKLSCAASGFAFSTYDMSWVRQTPEKRLEWVAYISPGGGATYYPDTVKGRFTISRDNAKNTLYLQMTSLKSEDTAMYYCAGRRDYYGMDYWGQGTSVTVSS
VL: DVVMTQTPLSLPVSLGDQASISCRSSQSLVHSNGNTYLHWYLQKPGQSPKLLIYKVSNRFSGVPDRFSGSGSGTDFTLKISRVEAEDLGVYFCSQSTHVPWTFGGGTKLEIK
notes: Mouse hybridoma antibody purified from ascites; the tie is indirect; also called hybridoma CCTCC NO: C2018183
binding result [1]: no binding (tested: 50 ug/ml peptide)
binding result [2]: no binding (tested: 50 ug/ml peptide)
binding result [3]: no binding (tested: 50 ug/ml peptide)
binding result [4]: no binding (tested: 50 ug/ml peptide)
percent inhibition [5]: 100%
percent inhibition [6]: 97%
percent inhibition [7]: 96%
percent inhibition [8]: 9%
percent inhibition [9]: 88%
percent inhibition [10]: 7%
percent inhibition [11]: 98%
percent inhibition [12]: 94%
percent inhibition [13]: 64%
percent inhibition [14]: 100%
percent inhibition [15]: 99%
percent inhibition [16]: 99%
percent inhibition [17]: -6%
percent inhibition [18]: 11%
percent inhibition [19]: 8%
percent inhibition [20]: 8%
percent inhibition [21]: 5%
percent inhibition [22]: 5%
percent inhibition [23]: 11%
percent inhibition [24]: -9%
percent inhibition [25]: -8%
